Reference: patent US20150246947A1 (BAXALTA, published 2015)
Where “and” joins values, the source holds several entries; their conditions need not be identical. Identical values can stand only once. Non-standard residues stand in square brackets, D forms with d. 400Mal‑PEG = 40 kD PEG moiety attached via maleimide; Cys(Me-400MA) = not defined here

B1: JBS3179 (peptide)
peptide: Ac-TGLVSAGWYDYNFDHYREFTC-NH2
modifications: not fully specified (residue 21); also: tetramer: four peptides on a 40 kD four-arm PEG core
B2: JBS3318 (peptide)
peptide: Ac-EYYVSAGWYDYNTDTYYEFEC(400Mal‑PEG)-NH2
notes: JBS3319 conjugated to a 40 kD PEG moiety
B3: JBS3322 (peptide)
peptide: Ac-EYIVTAGWYDYNKDIYYEFK[Cys(Me-400MA)]-NH2
modifications: reading uncertain
notes: JBS3206 monomer comprising a 40 kD PEG moiety

Biological target: T1, human Protein S (UniProt P07225 42-676)
T1 chain: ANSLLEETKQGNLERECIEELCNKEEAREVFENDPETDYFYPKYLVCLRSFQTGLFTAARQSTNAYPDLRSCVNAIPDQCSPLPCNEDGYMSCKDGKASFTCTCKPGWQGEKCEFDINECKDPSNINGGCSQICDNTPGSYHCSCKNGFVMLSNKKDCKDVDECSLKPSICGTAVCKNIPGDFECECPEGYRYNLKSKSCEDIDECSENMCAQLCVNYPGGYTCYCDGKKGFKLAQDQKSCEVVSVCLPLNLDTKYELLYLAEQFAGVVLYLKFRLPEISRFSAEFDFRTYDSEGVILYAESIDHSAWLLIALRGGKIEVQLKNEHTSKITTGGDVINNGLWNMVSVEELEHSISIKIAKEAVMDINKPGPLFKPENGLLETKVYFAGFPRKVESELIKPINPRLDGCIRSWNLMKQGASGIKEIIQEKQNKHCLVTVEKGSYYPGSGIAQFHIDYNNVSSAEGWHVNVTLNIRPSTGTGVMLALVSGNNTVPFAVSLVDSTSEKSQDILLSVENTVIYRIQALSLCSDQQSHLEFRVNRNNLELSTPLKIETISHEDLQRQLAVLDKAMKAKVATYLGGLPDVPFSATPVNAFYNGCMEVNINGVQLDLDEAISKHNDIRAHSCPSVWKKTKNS
Assay: LANCE competition
Outline: (§1)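 In this LANCE homogeneous time-resolved FRET competition assay, europium-labelled Protein S, ULight-labelled streptavidin and a biotinylated tracer peptide were combined with unlabelled test peptide titrated in three-fold steps. The 50 µl reactions held final concentrations of 10 nM Protein S, 100 nM streptavidin and 300 nM tracer, or 2 nM Protein S and 60 nM tracer on a Tecan F500. After 1 hour at room temperature, signals were read at Ex 340 nm and Em 665 nm. IC50 was determined by non-linear regression of the emission signals.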
An IC50 of 0.6 nM was found for Ac-YGIVSAGWYDYNTDTYYEFY-NH2 [JBS3221] in this work.

Biological target: T1, human Protein S
Assay: LANCE competition
Remark: another data set of the same source
Outline: as §1
An IC50 of 0.7 nM was found for Ac-ESYVSAGWYDYNTDTYYEFF-NH2 [JBS3223] in this work.
An IC50 of 2.6 nM was found for Ac-EYYVEAGWYEYNTDNYYPFE-NH2 [JBS3236] in this work.
An IC50 of 8 nM was found for B1 in this work.
An IC50 of 0.9 nM was found for Ac-EYYVTAGWYDYNTDTYYEFE-NH2 [JBS3232] in this work.
An IC50 of 1.8 nM was found for Ac-YGLVEAGWYDYNNDTYMEFT-NH2 [JBS3201] in this work.
An IC50 of 1.4 nM was found for Ac-EYYVSAGWYDYMTDTYTEFE-NH2 [JBS3235] in this work.
An IC50 of 2.1 nM was found for Ac-TGLVSAGWYDYNNDVYREFT-NH2 [JBS3195] in this work.
An IC50 of 1 nM was found for Ac-EVIVSAGWYDYNNDIYYEFW-NH2 [JBS3274] in this work.
An IC50 of 0.9 nM was found for Ac-EYYVSAGWYDYNNDIYYEFE-NH2 [JBS3218] in this work.
An IC50 of 2.2 nM was found for Ac-DVHVSAGWYDYNKDIYYEFT-NH2 [JBS3296] in this work.

These binders were tested against T2, human Protein S (human, UniProt P07225 42-676) (assay: Biacore and LANCE IC50).
T2 construct: Called 'full length Protein S' / 'human full-length Protein S'; It was coated on plates (ELISA), Eu-labeled (LANCE) or immobilized on a chip (Biacore); also called PS; full length Protein S
T2 sequence: T1 chain
Ac-ESYVSAGWYDYNTDTYYEFF-NH2 [JBS3223]: binds.
Ac-EYYVEAGWYEYNTDNYYPFE-NH2 [JBS3236]: binds.
Ac-HIYVTAGWYDYNTDTYHEFE-NH2 [JBS3284]: binds.
Ac-YVEVSAGWYDYNTDTYSEFW-NH2 [JBS3281]: binds.
Ac-YGIVSAGWYDYNTDTYYEFY-NH2 [JBS3221]: binds.
Ac-DNYVSAGWYDYNTDTYYEFY-NH2 [JBS3297]: binds.
Ac-EYYVTAGWYDYNTDTYYEFE-NH2 [JBS3232]: binds.
Ac-EYYVSAGWYDYMTDTYTEFE-NH2 [JBS3235]: binds.
Ac-EVIVSAGWYDYNNDIYYEFW-NH2 [JBS3274]: binds.
Ac-EYYVSAGWYDYNTDTYYEFT-NH2 [JBS3314]: binds.
Ac-YGIVSAGWYDMNNDYYFEFY-NH2 [JBS3258]: binds.
Ac-EGYVSAGWYDYNQDIYFEFA-NH2 [JBS3260]: binds.
Ac-EYYVSAGWYDYNNDIYYEFE-NH2 [JBS3218]: binds.
Ac-DVHVSAGWYDYNKDIYYEFT-NH2 [JBS3296]: binds.

Each binder was assayed against T2, human Protein S (assay: Biacore (SPR), Protein S immobilized).
Outline: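 Surface plasmon resonance was used to measure peptide binding kinetics to human full-length Protein S, and Kd was calculated from the kon and koff obtained by Langmuir model fits of the sensorgrams. The protein was immobilized at 1000 RU on a […] chip in a Biacore 3000 or Biacore T200. Peptides were injected at various concentrations in HBS-buffer with 3 mM CaCl₂ and 1% DMSO, and the chip was regenerated using 4 M MgCl₂ in HBS-buffer.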
A Kd of 0.4 nM, a koff of 0.000179 s⁻¹ and a kon of 410000 M⁻¹ s⁻¹ were found for B1 in this work.
A Kd of 1.4 nM, a koff of 0.000213 s⁻¹ and a kon of 152000 M⁻¹ s⁻¹ were found for B2 in this work.
A Kd of 3.6 nM, a koff of 0.000278 s⁻¹ and a kon of 78000 M⁻¹ s⁻¹ were found for B3 in this work.

What follows are binders tested against T2, human Protein S (assay: cell-based or functional assay).
With B1 the “CAT EC50” value was 6 nM and the “CAT EC50, plasmas from three individuals with severe hemophilia A” value (from here on “CAT EC50, plasmas from three individuals”) was less than 100 nM.
In the case of B2, the “CAT EC50, plasmas from three individuals” value is reported as less than 100 nM.
For B3, the “CAT EC50, plasmas from three individuals” value was less than 100 nM.

The binders below were run against T3, human GAS6 (human, UniProt Q14393 49-678, limits assumed) (assay: method not restated (Biacore in Example 3)).
T3 construct: Immobilized on the Biacore chip; also called protein encoded by the Growth Arrest Specific-6 gene; anti-target
T3 sequence (looked up): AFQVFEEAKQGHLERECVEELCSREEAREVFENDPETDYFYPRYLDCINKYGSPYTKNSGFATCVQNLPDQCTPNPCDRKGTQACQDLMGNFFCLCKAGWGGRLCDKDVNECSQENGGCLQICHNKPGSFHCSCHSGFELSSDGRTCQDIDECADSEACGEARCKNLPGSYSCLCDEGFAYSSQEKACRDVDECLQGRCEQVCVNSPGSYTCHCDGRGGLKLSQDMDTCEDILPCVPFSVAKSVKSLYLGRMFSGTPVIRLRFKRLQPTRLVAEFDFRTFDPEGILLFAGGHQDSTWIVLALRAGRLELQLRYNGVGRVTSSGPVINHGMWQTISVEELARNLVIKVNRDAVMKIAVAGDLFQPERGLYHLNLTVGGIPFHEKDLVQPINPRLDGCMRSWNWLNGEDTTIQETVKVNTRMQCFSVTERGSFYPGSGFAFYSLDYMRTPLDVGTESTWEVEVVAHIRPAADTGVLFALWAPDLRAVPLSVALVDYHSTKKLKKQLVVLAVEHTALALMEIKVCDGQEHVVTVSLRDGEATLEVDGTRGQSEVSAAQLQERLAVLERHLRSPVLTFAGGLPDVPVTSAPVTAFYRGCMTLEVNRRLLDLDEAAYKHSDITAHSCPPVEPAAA
Outline: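 Binding to the anti-target human GAS6 was tested by surface plasmon resonance (Biacore), with 1000 RU GAS6 immobilized on a […] chip. Peptides were injected at various concentrations in HBS-buffer with 3 mM CaCl₂ and 1% DMSO, and the chip was regenerated with 4 M MgCl₂. Kinetic fitting of the GAS6 signals was error prone, so sensorgrams were reviewed visually to estimate anti-target binding.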
B1: no binding (tested: 1 µM).
B2: no binding (tested: 1 µM).
B3: no binding (tested: 1 µM).

Biological target: T1, human Protein S
Assay: LANCE competition
Remark: another data set of the same source
Outline: as §1
An IC50 of 1.3 nM was found for Ac-HIYVTAGWYDYNTDTYHEFE-NH2 [JBS3284] in this work.
For Ac-YVEVSAGWYDYNTDTYSEFW-NH2 [JBS3281], the IC50 was 1.7 nM and 2.3 nM.
An IC50 of 2.8 nM was found for B2 in this work.
An IC50 of 1 nM was found for Ac-DNYVSAGWYDYNTDTYYEFY-NH2 [JBS3297] in this work.
An IC50 of 0.8 nM was found for Ac-EYYVSAGWYDYNTDTYYEFT-NH2 [JBS3314] in this work.
With Ac-YGIVSAGWYDMNNDYYFEFY-NH2 [JBS3258] the IC50 was 0.8 nM and 0.9 nM.
An IC50 of 1.6 nM was found for Ac-EGYVSAGWYDYNQDIYFEFA-NH2 [JBS3260] in this work.
An IC50 of 4.5 nM was found for B3 in this work.

These binders were tested against T2, human Protein S (assay: LANCE TR-FRET competition; Eu-labeled Protein S; competitor tracer JBS0684).
Method: Peptides also were characterized in a competition, homogenous europium-based TR-FRET assay (LANCE IC50 assay) using JBS0684 as a tracer (i.e., competitor for Protein S binding). The following reagents were mixed together in a Perkin-Elmer ProxiPlate MTP well (indicated concentration is the final concentration): Eu-labeled Protein S (10 nM), Ulight™-labeled Streptavidin (100 nM), tracer (JBS0684 (300 nM)), and peptide (titrated in three-fold dilution steps). The final volume was 50 μl/well. The reaction mix was incubated for 1 hour at room temperature, then the fluorescence emission at 665 nm was recorded on a multi-mode reader (SpectraMax® M5, Molecular Devices) using the following instrument settings: Ex 340 nm, Em 665 nm, delay 50 μsec, integration 100 μsec, reads 100. Binding of tracer peptides to soluble europium-labeled Protein S was detected by Streptavidin labeled with an acceptor fluorophor (ULight™). Inhibition of tracer-binding to Protein S by a non-biotinylated peptide results in a decrease of TR-FRET between the Eu-labeled Protein S and ULight™-labeled Streptavidin. IC50 values were obtained from peptide titration curves at constant tracer concentration using non-linear regression of the fluorescence emission signals at 665 nm.
Several peptides having multiple substitutions in the JBS2572 amino acid sequence were synthesized and evaluated using LANCE IC50 and CAT assays described above. For the assays, pooled normal plasma was supplemented with 3 nM APC and triggered with 6 pM TF, and 15 μM phospholipids (DOPC/POPS 80/20). Stock APC was diluted with TF-PL-MIX to 24 nM (plasma concentration: 3 nM).
An IC50 of 1.9 nM was found for Ac-YGLVEAGWYDYNNDTYMEFT-NH2 [JBS3201] in this work.
An IC50 of 2 nM was found for Ac-TGLVSAGWYDYNNDVYREFT-NH2 [JBS3195] in this work.

Biological target: T2, human Protein S
Assay: cell-based or functional assay
Remark: another data set of the same source
In the case of Ac-YGLVEAGWYDYNNDTYMEFT-NH2 [JBS3201], the “CAT EC50” value is reported as 127 nM.
For Ac-TGLVSAGWYDYNNDVYREFT-NH2 [JBS3195], the “CAT EC50” value was 139 nM.
